Measurements as given in paper PMC9177745 (Biochemistry, 2022).

Assays:
[1] = target: T1, PhnY (in the 1:1 PhnY/Z system) (uncultured bacterium HF130_AEPn_1, UniProt D0E8I4); experiment: steady-state kinetics of the coupled PhnY/Z system; assay type: biochemical; conditions: two-enzyme PhnY/Z system; apparent Km of the system
T1 sequence (D0E8I4 1-262): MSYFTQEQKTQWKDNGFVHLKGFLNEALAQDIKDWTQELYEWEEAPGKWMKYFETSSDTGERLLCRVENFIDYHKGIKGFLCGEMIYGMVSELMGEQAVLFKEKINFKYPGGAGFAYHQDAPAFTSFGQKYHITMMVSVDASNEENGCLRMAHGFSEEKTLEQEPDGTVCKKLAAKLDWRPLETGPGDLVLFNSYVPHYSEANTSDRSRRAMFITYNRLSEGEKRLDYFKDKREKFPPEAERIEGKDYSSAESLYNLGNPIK

[2] = substrate: NC[C@H](O)P(=O)(O)O; experiment: steady-state kinetics, C-P bond cleavage; assay type: biochemical, Fonsecaea multimorphosa; conditions: O2; mixed-valent diiron HD-domain site
[3] = substrate: NCCCP(=O)(O)O; experiment: steady-state kinetics, conversion to inorganic phosphate; assay type: biochemical, Fonsecaea multimorphosa; conditions: two-step reaction to phosphate; co-substrates presumably as for 2AEP
[4] = substrate: NCCP(=O)(O)O; experiment: as above; assay type: biochemical, Fonsecaea multimorphosa; conditions: O2, alpha-ketoglutarate, Fe(II), ascorbate; apparent Km of the two-step reaction
[5] = substrate: NC[C@H](O)P(=O)(O)O; experiment: steady-state kinetics, C-P bond cleavage; assay type: biochemical, uncultured bacterium HF130_AEPn_1; conditions: O2; mixed-valent diiron site

NCCCP(=O)(O)O [3APP]
KM [1]: the PhnY/Z system is also able to act on 3APP

B1: PhoF (Fonsecaea multimorphosa CBS 102226) (protein)
chain: MSVPEEQMQFFRKNGYLILRNVLSEEETKDLQRWAQEVHDWPTDANSPWMPYEEINAQGQTVLCRTENYANSHAGLNGLLRGQKLLNLLKQLSGEDMLLFKEKINYKLAGSGGFAPHVDSTAYTHIKNIKHLAILLAVDPSDMSNGGLEVVEGSHEMNVPIGEDNCIEPDWVKQQKWTPVELKAGQVLVFGSYLAHRSGANHSNQDRKALYATYNCAREGDLHDEYYAHRKVVWPPAQLRKKGEEYKVGALVYGFGSPMLSVDAGKQLEFDEEEWKSKPRAAKAASRIIDILNQYGNSDYIGEPISQIEHSLQCAYLAAQNMADPQTVAAALLHDIGQIIPERDAEHILGGAQVRSMRQNSGIGADSRSSDSVGRVSHETLGAQYLLALGFPAKVAELVEAHVPAKRYLCATEKGYYSTLSDASKESLRFQGGPMSPDEVRLWQEGSWADEKANLRRWDDGAKVVGLTVPGLETYRPVLEQVLSS
Km [2]: 43 ± 23 µM | kcat [2]: 9 ± 2 s⁻¹ | Km [3]: 305 ± 263 µM | kcat [3]: 0.57 ± 0.30 s⁻¹ | Km [4]: 197 ± 73 µM | kcat [4]: 1.16 ± 0.17 s⁻¹

B2: PhnZ (uncultured bacterium HF130_AEPn_1) (protein)
chain: MSLSNSSKVSVLISLLEKSRDLDYIGEAINQLEHSLQCAYFAQRSGADNEMVLAALLHDLGHYCNDTSFEDMGGYGVWQHEKVGADYLRGLGFSERVACLIEGHVAAKRYLVSSKASYLKNLSDASRKTLEYQGGPMDEGERRLFEEREDFKDCLKIRAWDEKGKQTDLKVPGPEHYRKMMEEHLSENQN
Km [5]: 107 ± 29 µM | kcat [5]: 15 ± 3 s⁻¹
